Assay [1] deals with T1, mB7-H4 (soluble mouse B7-H4, construct not named) (mouse, UniProt Q7TSP5 25-257, limits assumed).
T1 sequence: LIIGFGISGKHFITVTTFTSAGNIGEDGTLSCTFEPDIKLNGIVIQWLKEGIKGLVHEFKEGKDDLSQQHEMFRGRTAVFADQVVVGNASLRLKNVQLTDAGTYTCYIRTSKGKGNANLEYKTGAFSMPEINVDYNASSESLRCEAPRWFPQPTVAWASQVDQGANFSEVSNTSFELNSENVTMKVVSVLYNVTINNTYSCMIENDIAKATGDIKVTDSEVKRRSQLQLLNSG
Kind of assay: SPR (Biacore); values equal to Table 11.

The target in assay [2] is T2, mouse B7-H4-Fc (mouse; human).
T2 construct: also called mB7-H4-Fc; mB7-H4-hFc
T2 sequence (chain, as listed by the source): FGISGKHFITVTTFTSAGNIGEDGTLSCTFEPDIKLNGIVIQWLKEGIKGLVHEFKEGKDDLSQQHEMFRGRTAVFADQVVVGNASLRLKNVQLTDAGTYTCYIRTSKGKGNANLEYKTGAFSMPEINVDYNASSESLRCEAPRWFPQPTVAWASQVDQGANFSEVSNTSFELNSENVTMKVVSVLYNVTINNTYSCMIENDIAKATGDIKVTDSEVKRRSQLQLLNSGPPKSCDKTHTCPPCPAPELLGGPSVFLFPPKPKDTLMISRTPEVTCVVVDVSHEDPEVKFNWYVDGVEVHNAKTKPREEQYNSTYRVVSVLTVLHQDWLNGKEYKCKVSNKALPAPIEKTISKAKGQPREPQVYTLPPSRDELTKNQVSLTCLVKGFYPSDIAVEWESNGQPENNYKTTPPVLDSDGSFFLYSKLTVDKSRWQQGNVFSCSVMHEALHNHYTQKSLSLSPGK
Kind of assay: ELISA on coated mB7-H4-Fc. The method, then: (§1) About 1-2 μg/ml of human or mouse B7-H4-Fc (or his-tagged) was immobilized on ELISA plates (Immuno 2HB, Thermo scientific, cat #3455) at 4° C. overnight. After blocking the plates with 3% PBS+milk, serial diluted antibodies were added to the blocked plates and incubated at RT for 1-1.5 h. After washing the plates with PBS-T (0.05%), horse radish peroxidase (HRP)-conjugated antibody targeting the hFab was added to the plate. Signals were developed by adding 3,3′,5,5′-Tetramethylbenzidine (TMB (followed 1N of H₂SO₄ to stop the reaction. The OD at 450 nm was read by ELISA plate reader (Infinite M1000 from TECAN). GraphPad from Prism was used to plot OD450 vs. antibody concentration curve and to calculate the EC50 values.

Assay [3] addresses T3, human B7-H4-his (human, UniProt Q7Z7D3 25-259).
T3 construct: also called hB7-H4-his; hB7-H4 his; not shown: his tag
T3 sequence: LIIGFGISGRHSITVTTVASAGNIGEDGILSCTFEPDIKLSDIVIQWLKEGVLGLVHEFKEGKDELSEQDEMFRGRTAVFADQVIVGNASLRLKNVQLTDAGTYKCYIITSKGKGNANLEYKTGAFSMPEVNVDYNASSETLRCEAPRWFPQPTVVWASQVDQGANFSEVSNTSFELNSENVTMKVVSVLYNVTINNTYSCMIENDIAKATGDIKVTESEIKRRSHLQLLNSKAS
The assay can be described thus: SPR (Biacore). In outline:
(§2)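 Ligands (human B7-H4-Fc, human B7-H4-his, mouse B7-H4-Fc) were amine-coupled to CM5 chips at 50-100 RU. Analyte was injected at 100 nM to 0.1 nM in HBS-EP, pH 7.4, at 25 °C, with 180 s association and 1000 or 1200 s dissociation. Kinetics were fitted to a 1:1 Langmuir model.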

Assay [4] concerns the target T2, mouse B7-H4-Fc. The assay can be described thus: SPR (Biacore). An outline of the steps:
as §2

Assay [5] addresses T4, human B7-H4-Fc (human).
T4 construct: also called hB7-H4-Fc; hB7-H4 Fc
The assay can be described thus: SPR (Biacore). In outline:
as §2

In assay [6] the target is T1, mB7-H4 (soluble mouse B7-H4, construct …). The assay can be described thus: ELISA, mB7-H4. Here is the method:
as §1

Assay [7] addresses T5, hB7-H4 (soluble human B7-H4, construct not named) (human, UniProt Q7Z7D3 25-259, limits assumed).
T5 construct: also called soluble hB7-H4
T5 sequence: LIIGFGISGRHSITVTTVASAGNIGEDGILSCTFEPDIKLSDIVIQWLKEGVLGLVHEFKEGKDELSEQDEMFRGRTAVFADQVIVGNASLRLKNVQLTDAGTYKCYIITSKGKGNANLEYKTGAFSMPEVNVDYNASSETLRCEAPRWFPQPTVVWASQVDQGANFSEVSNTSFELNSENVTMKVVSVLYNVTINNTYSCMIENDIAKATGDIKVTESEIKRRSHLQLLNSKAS
Kind of assay: ELISA, hB7-H4. In outline: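 Human or mouse B7-H4-Fc (or his-tagged), about 1-2 μg/ml, was coated overnight at 4° C and blocked with 3% PBS+milk. Serially diluted antibodies bound for 1-1.5 h at RT, detected with HRP-conjugated anti-hFab and TMB, stopped with 1N H₂SO₄. EC50 came from OD450 versus antibody concentration curves.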

Assay [8] has as its target T6, human B7-H4 expressed on cells (human, UniProt Q7Z7D3 25-282).
T6 construct: Transfected CHO cells or tumor cell lines that carry hB7-H4; also called cellular hB7-H4
T6 sequence: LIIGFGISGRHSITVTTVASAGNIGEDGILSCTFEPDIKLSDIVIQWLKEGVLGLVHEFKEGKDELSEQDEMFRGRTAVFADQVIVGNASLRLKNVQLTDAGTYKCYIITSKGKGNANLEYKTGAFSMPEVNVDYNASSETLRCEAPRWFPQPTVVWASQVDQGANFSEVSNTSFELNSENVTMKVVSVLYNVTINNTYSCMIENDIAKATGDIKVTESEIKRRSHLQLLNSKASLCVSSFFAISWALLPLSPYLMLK
The assay can be described thus: flow cytometry, SK-BR-3 cells.

Assay [9] deals with T4, human B7-H4-Fc. The assay can be described thus: ELISA on coated hB7-H4-Fc. The method, then:
as §1

Assay [10] has as its target T5, hB7-H4 (soluble human B7-H4, construct …). The assay can be described thus: SPR (Biacore).
Assay [11] deals with T7, IgC domain of human B7-H4-Fc (human).
T7 construct: also called hB7-H4 IgC domain
T7 sequence (chain, as listed by the source): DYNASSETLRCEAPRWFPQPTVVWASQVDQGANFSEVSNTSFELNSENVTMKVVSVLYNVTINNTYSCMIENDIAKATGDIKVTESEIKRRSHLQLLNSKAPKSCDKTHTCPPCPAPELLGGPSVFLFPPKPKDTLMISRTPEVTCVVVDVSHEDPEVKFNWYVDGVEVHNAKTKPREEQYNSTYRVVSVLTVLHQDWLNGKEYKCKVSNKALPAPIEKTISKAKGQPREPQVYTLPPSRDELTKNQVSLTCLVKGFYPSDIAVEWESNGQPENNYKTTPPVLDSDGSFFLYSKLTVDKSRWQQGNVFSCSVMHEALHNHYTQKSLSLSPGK
Kind of assay: ELISA, coated hB7-H4 IgC domain.

Assay [12] concerns the target T8, IgV domain of human B7-H4-Fc (human).
T8 construct: also called hB7-H4 IgV domain
Kind of assay: ELISA on coated IgV domain of hB7-H4.

For assay [13], the target named is T3, human B7-H4-his. The assay can be described thus: ELISA on coated hB7-H4-his. Here is the method: as §1
The target of assay [14] is T9, mouse B7-H4 expressed on cells (mouse, UniProt Q7TSP5 25-257).
T9 construct: also called cellular mB7-H4; mB7-H4/CT26
T9 sequence: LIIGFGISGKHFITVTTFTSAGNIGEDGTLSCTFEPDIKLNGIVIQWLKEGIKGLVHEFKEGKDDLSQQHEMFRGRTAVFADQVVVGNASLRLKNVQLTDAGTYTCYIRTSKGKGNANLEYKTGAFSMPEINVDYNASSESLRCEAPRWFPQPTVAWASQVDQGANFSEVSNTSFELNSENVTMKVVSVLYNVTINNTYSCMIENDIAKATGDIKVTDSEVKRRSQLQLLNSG
Kind of assay: flow cytometry, mB7-H4/CT26 cells.

Assay [15] has as its target T10, IgC domain of mouse B7-H4-Fc (mouse; human).
T10 construct: also called mB7-H4 IgC domain
The assay can be described thus: ELISA, coated mB7-H4 IgC domain.

Assay [16] concerns the target T11, IgV domain of mouse B7-H4-Fc (mouse; human).
T11 construct: also called mB7-H4 IgV domain
The assay can be described thus: ELISA, coated mB7-H4 IgV domain.

T4 sequence (chain, as listed by the source): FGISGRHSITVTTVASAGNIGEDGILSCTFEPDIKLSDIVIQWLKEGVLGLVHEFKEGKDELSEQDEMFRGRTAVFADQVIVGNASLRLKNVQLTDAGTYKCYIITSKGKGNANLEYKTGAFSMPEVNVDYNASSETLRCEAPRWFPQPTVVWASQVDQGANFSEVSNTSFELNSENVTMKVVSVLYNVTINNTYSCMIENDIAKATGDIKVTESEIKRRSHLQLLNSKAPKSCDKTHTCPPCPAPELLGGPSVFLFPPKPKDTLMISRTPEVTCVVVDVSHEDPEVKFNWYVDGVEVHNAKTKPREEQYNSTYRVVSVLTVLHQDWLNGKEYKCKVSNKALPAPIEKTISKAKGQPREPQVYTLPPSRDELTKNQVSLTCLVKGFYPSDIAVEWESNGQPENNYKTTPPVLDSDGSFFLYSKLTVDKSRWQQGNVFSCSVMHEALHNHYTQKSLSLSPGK
T11 sequence (chain, as listed by the source): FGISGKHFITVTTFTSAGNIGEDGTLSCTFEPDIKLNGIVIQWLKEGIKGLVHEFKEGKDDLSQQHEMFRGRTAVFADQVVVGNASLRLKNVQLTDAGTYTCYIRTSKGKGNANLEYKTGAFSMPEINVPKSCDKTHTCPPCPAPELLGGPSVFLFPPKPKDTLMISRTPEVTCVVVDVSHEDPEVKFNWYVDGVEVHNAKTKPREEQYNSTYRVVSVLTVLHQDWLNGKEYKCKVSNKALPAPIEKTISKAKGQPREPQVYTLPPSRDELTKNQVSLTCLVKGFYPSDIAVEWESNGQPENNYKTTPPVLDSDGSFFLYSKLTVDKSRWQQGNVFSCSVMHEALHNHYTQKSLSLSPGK
T8 sequence (chain, as listed by the source): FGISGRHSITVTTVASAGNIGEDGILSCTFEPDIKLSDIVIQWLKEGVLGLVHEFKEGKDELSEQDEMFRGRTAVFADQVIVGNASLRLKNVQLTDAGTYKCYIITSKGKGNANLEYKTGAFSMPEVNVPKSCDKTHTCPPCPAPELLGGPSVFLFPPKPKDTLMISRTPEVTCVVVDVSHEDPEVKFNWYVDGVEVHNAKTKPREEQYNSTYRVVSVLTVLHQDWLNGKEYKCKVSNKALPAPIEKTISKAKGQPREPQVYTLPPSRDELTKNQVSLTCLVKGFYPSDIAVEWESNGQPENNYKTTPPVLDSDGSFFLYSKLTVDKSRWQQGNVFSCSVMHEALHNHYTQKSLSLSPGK
T10 sequence (chain, as listed by the source): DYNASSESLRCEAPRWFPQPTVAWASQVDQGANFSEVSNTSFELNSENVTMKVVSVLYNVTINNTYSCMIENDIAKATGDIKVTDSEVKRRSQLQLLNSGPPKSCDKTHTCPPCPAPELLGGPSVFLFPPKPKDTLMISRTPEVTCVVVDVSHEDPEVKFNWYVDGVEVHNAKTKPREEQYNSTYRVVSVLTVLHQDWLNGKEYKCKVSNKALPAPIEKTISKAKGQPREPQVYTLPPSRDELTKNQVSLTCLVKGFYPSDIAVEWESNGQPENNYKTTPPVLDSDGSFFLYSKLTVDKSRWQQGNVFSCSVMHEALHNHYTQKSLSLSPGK

B1: Control antibody 1 (antibody 20502 described in US20190085080A1) (antibody, V domains shown)
VH: QLQLQESGPGLVKPSETLSLTCTVSGGSIKSGSYYWGWIRQPPGKGLEWIGNIYYSGSTYYNPSLRSRVTISVDTSKNQFSLKLSSVTAADTAVYYCAREGSYPNQFDPWGQGTLVTVSS
VL: EIVMTQSPATLSVSPGERATLSCRASQSVSSNLAWYQQKPGQAPRLLIYGASTRATGIPARFSGSGSGTEFTLTISSLQSEDFAVYYCQQYHSFPFTFGGGTKVEIK
notes: also called (+) control Ab1; (+) Ab1
For B1, the Kd in [1] came to 0.499 nM; in assay [3], 0.11 nM; in [4] it was 0.509 nM; in assay [5], 0.45 nM; in [10], 0.499 nM. Besides, the “EC50 (read off the curve)” value was approximately 0.1 nM in assay [2]; approximately 0.1 nM in assay [9]; approximately 0.2 nM in assay [12]; approximately 0.2 nM in assay [13]; approximately 0.3 nM in assay [16]. The EC50 in assay [6] worked out at 0.139 nM; in assay [7] it was 0.106 nM; in assay [8], 2.64 nM; in assay [14] it was 2.06 nM. The binding result in assay [11] and in [15] was “no binding (tested: log 1 nM (10 nM))” throughout.

B2: 39A11/57G8 (antibody, human IgG1, V domains shown)
VH: EVQLLESGGGLVQPGGSLRLSCAASGFTFSSYGMHWVRQAPGKGLEWVASISSSSGYIYYADSVKGRFTISRDNSKNTLYLQMNSLRAEDTAVYYCARASSGMDVWGQGTTVTVSS
VL: DIQMTQSPSSLSASVGDRVTITCRASQSIRSYLNWYQQKPGKAPKLLIYYASSLQSGVPSRFSGSGSGTDFTLTISSLQPEDFATYYCQQYYSTPLTFGQGTKVEIK
notes: 39A11 VH with 57G8 VL
As for B2, the dissociation constant (Kd) in assay [1] amounted to 0.152 nM; in assay [3] it was 0.0355 nM; in [4], 0.0518 nM; in assay [5], 0.107 nM; in assay [10] it was 0.152 nM. The concentration for a half-maximal effect (EC50 (read off the curve)) in assay [2] is approximately 0.08 nM; in assay [9], approximately 0.08 nM; in assay [12] it was approximately 0.1 nM; in [13], approximately 0.1 nM; in [16], approximately 0.2 nM. The EC50 in assay [6] stood at 0.051 nM; in assay [7], 0.06 nM; in assay [8], 2.82 nM; in assay [14] it was 7.82 nM. For the same molecule, the binding result in [11] and in assay [15] was “no binding (tested: log 1 nM (10 nM))” in each case.

These data come from patent publication US20230312724A1 (KADMON, published 2023).
